Patent US20160297884A1 (Pfizer, published 2016)
Residue numbers refer to the chain shown, from its start.

T1: Human BCMA (human, UniProt Q02223 1-54, limits assumed)
T1 construct: Soluble analyte in SPR; construct not described; also called huBCMA; B-cell maturation antigen
T1 sequence (looked up): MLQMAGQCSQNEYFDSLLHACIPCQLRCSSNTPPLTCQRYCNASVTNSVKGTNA

B1: L3.PY/P6E01 (antibody, V domains shown)
VH: EVQLLESGGGLVQPGGSLRLSCAASGFTFGSYAMTWVRQAPGKGLEWVSAISGSGGNTFYADSVKGRFTISRDNSKNTLYLQMNSLRAEDTAVYYCARVSPIASGMDYWGQGTLVTVSS
VL: EIVLTQSPGTLSLSPGERATLSCRASQSVSSSYLAWYQQKPGQAPRLLIYGASSRATGIPDRFSGSGSGTDFTLTISRLEPEDFAVYYCQHYPYPPSFTFGQGTKVEIK
notes: IgG
B2: L1.GDF/L3.PY/H3.AQ (antibody, V domains shown)
VH: B1 VH with S104A, G105Q
VL: B1 VL with S30G, S31D, S32F
notes: IgG
B3: L1.LGF/L3.KW/P6E01 (antibody, V domains shown)
VH: B1 VH
VL: B1 VL with V29L, S30G, S32F, Q90K, P93G, Y94W
notes: IgG
B4: L3.KW/P6E01 (antibody, V domains shown)
VH: B1 VH
VL: B1 VL with Q90K, P93G, Y94W
notes: IgG
B5: L1.LGF/L3.NY/H3.AP (antibody, V domains shown)
VH: B1 VH with S104A, G105P
VL: B1 VL with V29L, S30G, S32F, P93N
notes: IgG
B6: L1.LGF/L3.NY/H3.AQ (antibody, V domains shown)
VH: B1 VH with S104A, G105Q
VL: B1 VL with V29L, S30G, S32F, P93N
notes: IgG
B7: L1.GDF/L3.NY/P6E01 (antibody, V domains shown)
VH: B1 VH
VL: B1 VL with S30G, S31D, S32F, P93N
notes: IgG
B8: L3.NY/P6E01 (antibody, V domains shown)
VH: B1 VH
VL: B1 VL with P93N
notes: IgG
B9: L1.LGF/L3.KW/H3.AP (antibody, V domains shown)
VH: B1 VH with S104A, G105P
VL: B1 VL with V29L, S30G, S32F, Q90K, P93G, Y94W
notes: IgG
B10: L1.LGF/L3.PY/H3.AP (antibody, V domains shown)
VH: B1 VH with S104A, G105P
VL: B1 VL with V29L, S30G, S32F
notes: IgG
B11: L1.LGF/L3.KW/H3.AL (antibody, V domains shown)
VH: B1 VH with S104A, G105L
VL: B1 VL with V29L, S30G, S32F, Q90K, P93G, Y94W
notes: IgG
B12: L1.LGF/L3.NY/H3.AL (antibody, V domains shown)
VH: B1 VH with S104A, G105L
VL: B1 VL with V29L, S30G, S32F, P93N
notes: IgG
B13: L1.LGF/L3.NY/P6E01 (antibody, V domains shown)
VH: B1 VH
VL: B1 VL with V29L, S30G, S32F, P93N
notes: IgG
B14: L1.LGF/L3.PY/H3.AQ (antibody, V domains shown)
VH: B1 VH with S104A, G105Q
VL: B1 VL with V29L, S30G, S32F
notes: IgG
B15: L1.LGF/L3.KW/H3.AQ (antibody, V domains shown)
VH: B1 VH with S104A, G105Q
VL: B1 VL with V29L, S30G, S32F, Q90K, P93G, Y94W
notes: IgG
B16: L1.GDF/L3.NY/H3.AQ (antibody, V domains shown)
VH: B1 VH with S104A, G105Q
VL: B1 VL with S30G, S31D, S32F, P93N
notes: IgG
B17: L3.PY/H3.TAQ (antibody, V domains shown)
VH: B1 VH with A97T, S104A, G105Q
VL: B1 VL
notes: Tested as IgG
B18: A02_Rd4_6nM_C01 (antibody, V domains shown)
VH: EVQLLESGGGLVQPGGSLRLSCAASGFTFSSYAMNWVRQAPGKGLEWVSAITASGGSTYYADSVKGRFTISRDNSKNTLYLQMNSLRAEDTAVYYCARYWPMSLWGQGTLVTVSS
VL: EIVLTQSPGTLSLSPGERATLSCRASQSVSAYYLAWYQQKPGQAPRLLMYDASIRATGIPDRFSGSGSGTDFTLTISRLEPEDFAVYYCQQYERWPLTFGQGTKVEIK
B19: COMBO_Rd4_0.6nM_C29 (antibody, V domains shown)
VH: B18 VH with A33P, N35S, T52G, A53G, T58L, Y59P, S103D, L104I
VL: B18 VL with A31S, Y32S, E93Q, R94S
notes: Tested as IgG

Biological target: T1, Human BCMA
Assay: SPR, IgG immobilised, 25 C
Description: (§1) All experiments were performed on a Bio-Rad Proteon XPR36 surface Plasmon resonance biosensor (Bio-Rad, Hercules, Calif.). […] The analysis temperature for the immobilization was 25° C. and the running buffer was HBS-T+(10 mM HEPES, 150 mM NaCl, 0.05% Tween-20, pH 7.4). Channels were activated in the analyte (horizontal) direction by injecting a mixture of 1 mM ECD and 0.25 mM NHS for 3 minutes at a flow rate of 30 μL/min. IgGs were immobilized on the activated spots by injecting them in the ligand (vertical) direction at 20 μg/mL in 10 mM Acetate pH 4.5 buffer for 1.5 minutes at […]. The activated surfaces were blocked by injecting 1M ethanolamine, pH 8.5 in the analyte direction for 3 minutes at 30 μL/min.
(§2) The analysis temperature for the BCMA binding analysis was 37° C. or 25° C. in a running buffer of HBS-T+, supplemented with 1 mg/mL BSA. A kinetic titration method was employed for the interaction analysis as described in Abdiche, et al. Human BCMA (huBCMA) or cynomolgus monkey BCMA (cyBCMA) analyte was injected in the analyte direction using a series of injections from low to high concentration. The concentrations used were 0.08 nM, 0.4 nM, 2 nM, 10 nM and 50 nM (a 5-membered series, with a 5-fold dilution factor and top concentration of 50 nM). The association time for a given analyte dilution was two minutes. Immediately after the 50 nM BCMA injection, dissociation was monitored for 2 hours.
(§3) The sensorgrams were double-referenced and fit to a 1:1 Langmuir with mass transport kinetic titration model in BIAevaluation Software version 4.1.1 (GE Lifesciences, Piscataway, N.J.).

Binder | Kd [nM] | T ½ [min] | koff [s⁻¹] | kon [M⁻¹ s⁻¹]
B1 | 0.32 | 50.7 | 0.000228 | 712000
B2 | 9.49 | 0.86 | 0.0135 | 1.42e+06
B3 | 9.08 | 1.53 | 0.00755 | 831000
B4 | 0.43 | 36.7 | 0.000315 | 740000
B5 | 0.57 | 21.7 | 0.000533 | 936000
B6 | 0.45 | 38.6 | 0.000299 | 666000
B7 | 3.7 | 1.95 | 0.00592 | 1.6e+06
B8 | 0.44 | 30.1 | 0.000384 | 876000
B9 | 2.44 | 5.1 | 0.00227 | 928000
B10 | 2.12 | 11.9 | 0.000969 | 457000
B11 | 2.87 | 9.4 | 0.00123 | 428000
B12 | 1.27 | 11.9 | 0.00097 | 763000
B13 | 3.32 | 2.63 | 0.0044 | 1.33e+06
B14 | 0.95 | 13 | 0.000886 | 931000
B15 | 1.82 | 12.1 | 0.000956 | 524000
B16 | 0.73 | 16 | 0.000722 | 984000

Biological target: T2, cynomolgus monkey BCMA (cynomolgus monkey, UniProt A0A2K5UD97 1-53)
T2 construct: Soluble analyte in SPR; construct not described; also called cyBCMA; Cyno BCMA
Assay: SPR, IgG immobilised, 25 C
Description: as §1, §2, §3

T2 sequence (A0A2K5UD97 entry or part of it): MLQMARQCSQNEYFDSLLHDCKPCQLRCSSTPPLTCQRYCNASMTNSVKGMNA

Binder | Kd [nM] | T ½ [min] | koff [s⁻¹] | kon [M⁻¹ s⁻¹]
B1 | 3.4 | 3.9 | 0.00293 | 855000
B2 | 10.7 | 0.7 | 0.0166 | 1.55e+06
B3 | 42.8 | 0.6 | 0.0195 | 455000
B4 | 3.4 | 4.5 | 0.00257 | 763000
B5 | 6.7 | 2.1 | 0.00557 | 830000
B6 | 2 | 7.8 | 0.00148 | 751000
B7 | 6.4 | 1.5 | 0.00767 | 1.2e+06
B8 | 2.8 | 4 | 0.00287 | 1.01e+06
B9 | 27.8 | 0.7 | 0.0154 | 554000
B10 | 35.8 | 0.9 | 0.013 | 364000
B11 | 41.8 | 1 | 0.0121 | 290000
B12 | 23.2 | 0.8 | 0.0148 | 635000
B13 | 11.4 | 1.1 | 0.0105 | 920000
B14 | 4.8 | 2.4 | 0.00477 | 1e+06
B15 | 6.7 | 3.3 | 0.00355 | 527000
B16 | 1.2 | 8.5 | 0.00136 | 1.18e+06

Biological target: T1, Human BCMA
Assay: SPR, IgG immobilised, 37 C
How it was run: (§4)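 Rate constants come from a 1:1 Langmuir model including mass transport, fitted to double-referenced sensorgrams. Analyte was human or cynomolgus BCMA in five rising concentrations up to 50 nM over amine-coupled IgG; runs were at 25° C or 37° C.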

Binder | Kd [nM] | T ½ [min] | koff [s⁻¹] | kon [M⁻¹ s⁻¹]
B1 | 0.74 | 5.91 | 0.00196 | 2.65e+06

Biological target: T2, cynomolgus monkey BCMA
Assay: SPR, IgG immobilised, 37 C
How it was run: as §4

Binder | Kd [nM] | T ½ [min] | koff [s⁻¹] | kon [M⁻¹ s⁻¹]
B1 | 5.96 | 0.88 | 0.0131 | 2.2e+06

Biological target: BCMA (analyte of Table 4A)
Assay: SPR (Bio-Rad ProteOn XPR36), IgG amine-coupled, BCMA as analyte, kinetic titration; species of BCMA and temperature not stated for Table 4A
Description: as §1, §2, §3

BCMA (analyte of Table 4A), sequence (Q02223 whole entry): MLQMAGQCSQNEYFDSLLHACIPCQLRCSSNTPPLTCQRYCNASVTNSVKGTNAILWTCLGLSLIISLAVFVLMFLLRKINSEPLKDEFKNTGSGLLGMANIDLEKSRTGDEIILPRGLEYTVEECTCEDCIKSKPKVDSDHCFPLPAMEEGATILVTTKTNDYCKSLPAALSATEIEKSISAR

Binder | Kd [nM] | koff [s⁻¹] | kon [M⁻¹ s⁻¹] | t1/2 [min]
B17 | 0.053 | 0.00014 | 2.6e+06 | 84
B18 | 0.024 | 2.8e-05 | 1.2e+06 | 411
B19 | 0.021 | 0.00014 | 6.6e+06 | 83
